In PMC11036628 one finds IL-10 transcripts by quantitative PCR on NLGP addition to tumour-conditioned mBMDCs; counterbalanced by Laminarin, Dectin-1 siRNA and both and IL-12p35 transcripts by quantitative PCR on NLGP addition to tumour-conditioned mBMDCs; counterbalanced by Laminarin, Dectin-1 siRNA and both data, which are given here for 1 substance.

This assay has as its target Dectin-1 (mouse (endogenous in bone marrow-derived dendritic cells)) (UniProt Q6QLQ4).
UniProt Q6QLQ4, sequence (Q6QLQ4 whole entry): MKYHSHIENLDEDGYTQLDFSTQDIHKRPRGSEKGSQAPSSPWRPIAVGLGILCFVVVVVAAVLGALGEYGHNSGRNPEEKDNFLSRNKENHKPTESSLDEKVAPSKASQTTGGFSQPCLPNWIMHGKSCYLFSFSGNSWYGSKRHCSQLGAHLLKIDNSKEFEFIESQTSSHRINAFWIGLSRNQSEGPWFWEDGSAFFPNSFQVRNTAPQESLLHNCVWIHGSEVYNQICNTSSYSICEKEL

The substance “Neem Leaf Glycoprotein (natural protein)” yielded an IL-10 transcripts by quantitative PCR on NLGP addition to tumour-conditioned mBMDCs; counterbalanced by Laminarin, Dectin-1 siRNA and both of 4.5 fold; an IL-12p35 transcripts by quantitative PCR on NLGP addition to tumour-conditioned mBMDCs; counterbalanced by Laminarin, Dectin-1 siRNA and both of 1.5 fold.
